This is an account of results in the DeepSol protein solubility set.

The nature of this data set: soluble on expression in E. coli; label from the status in PepcDB or PDB records.
Regarding “MLRSAVSALYRASRSFSETVPRLSATPLGKQEPQLSLSYTCKVCNSREGPKTFAKSSYEKGVVIVTCSGCHNHHIIADNIGWFEDFKGKNIEDHLKTRGEAVKRRDTIKNENGIFEIQK”, the “soluble on expression in E. coli” value is recorded as “not soluble”.
Consider “MRATEDHTIFDRGVGQRDQLQRLWTPYRMNYLAEAPVKRDPNSSASPAQPFTEIPQLSDEEGLVVARGKLVYAVLNLYPYNPGHLMVVPYRRVSELEDLTDLESAELMAFTQKAIRVIKNVSRPHGFNVGLNLGTSAGGSLAEHLHVHVVPRWGGDANFITIIGGSKLEHHHHHH”, for which the “soluble on expression in E. coli” value is listed as “not soluble”.
Regarding “MTNKLTSLTIAFVGALSSMGAQAHGWVEYPSARQNTCYLDGGFWDNTIPNQACQAAYDESGAFPFVQRNEVAANVPNYQDMAHVQAIVRDGHLCSAGDAAKSGLNLGSLHWQKTAIALDANNQIELIFNATAPHNPSYWQFYLSNENYDPTVPLTWGDLVLIDTAGNVPVGEDKKYRIKITLPADRSDSAVLYTRWQREDAAGEGFYNCSDISFNGSGTTPPKPTDPVEPPQYSDLGYYINQGFGPVESGDTVRFRTFDSTGAETTDISLAITANNTSTWSAELAGQFNQLKNKEWFIGIWHQEMNHYMYDSNNIYANKVFAPTANVSYQLSLIKADITPPVEPPVEPSNPWDKTATYNAGDIVDHNGKAWVAQWWTKGEEPGTTGEWGVWR”, the “soluble on expression in E. coli” value was “not soluble”.
“MAHHHHHHMLRGKSGLTASSSLEGGSEFSERIGNTLSSFLSESASLEVIGNELADNIANEIVGSLQNDSASFLQSEFDVKAQLKATAKKVLTEALKAALEPTEKIVASTIKPPRIKEDIYFLLSPVVRSLFNKVEDVLHKPVSDDIWNYESRGSSSEEEDEVDSDEDFLD”: the “soluble on expression in E. coli” value is “soluble”.
In the case of “MHYSSGNYEAFVRPRKSESADKKTAWLVGSGLAGLAGAAFLIRDGGVAGERITILEELDVPGGALDGLDVPEKGFVIRGGREMEEHFECLWDLYRSIPSLEVEDASVLDEFYRLNKDDPNFSLQRATQNQGQDAPDKALLTLNDRAQKDLLSVFLATREEMENKRINEVFSEDFLKSNFWLYWRTMFAFEEWHSALEMKLYLHRFIHHIGNLADFSSLKFNRYNQYESMVLPLVKWLQDHGVRFRYGIEVTDVDFDIHAEGKQATRIHWTEKGVEGGVDLGPDDLVLITIGSLTENSDNGDHHTPAKLREGPAPAWDLWRRIAAKDPAFGRPDVFGAHVTETKWASATITALDQRIPQYVEKIAKRNPFTGKIVTGGIVTVKDSSWLMSWAVHRQPHFKKQPKDQMIAWLYALFVDRPGDYVKKPMLDCTGEEITQEWLYHLGVPVEDIPELAAAGANTVPVMMPYITAFFMPRQAGDRPDVVPEGAVNFAFIGQFAESKQRDCIFTTEYSVRTPMEAVYTLMNVERGVPEVFNSTYDIRTLLAAIGPLRDGKGIDLPGPSFLHKLLMKKLEGTEIAELLKEFHLISELEHHHHHH”, the “soluble on expression in E. coli” value is listed as “not soluble”.
As to “MYQAIAQAIIKSIMADEYPTKLPTEKVLMAQYNASRNTIRKAIDVVFRHGLLRRVQGSGNFIIKQPQNTKKVLNLSIGFDQSAMVDGGPLVSKVVTFDKVTADETLAQQGNIALGDEVYRVVRLRYLNDILYDLEESYFPRTVVPFLSSESVQHSIFAFLREAYGITGSTTENYVHQVRVDAQRAELIGCPDGDKTLCLEAINYLANGTVFNFSRTFFVYPDLELYYHTENIDLQN”, the “soluble on expression in E. coli” value is “not soluble”.
For “MAHHHHHHMLRQSLLSLAKVYGAVPPLGAAQGHRLLHGKREREGSLFAVANDVKRDERLLRQQLNALLEEERMPMQARLQRSEAVSSHEAVPQTPLVDLPGVERRRDLPADPITRLFFQHKGDHALYYGTYDKPSVQDDDRVQIEKRVPRRREENLYTPIYDFCHRIREATEQRKRFVVVPSTIETRGCARVMHDHGLVAGFRDFHNDRAFAVELKYFQGDSTINVIEPCSYDGRTEFEWSPKMMRRLLNTHGIHNRLVVYICRTADNRIIDHIHAVKENIGGRGLMMVH”, the “soluble on expression in E. coli” value is listed as “not soluble”.
Turning to “MSLKHHHNHHGEAGFKRKVDYLDRPERSEVLSPEDFLQAMPIGKTASILDLGAGTGFLTIPAAKLVDNTVFALDLDAKMLELIESKAKEAGLANVETLEASMDDIPLEANSVDVVLASLVLHEADSLADVLREVSRVVKTGGYFASLEFDTKGTDLKGPPMEIQISAEKLKEELAGFGFEVVKNWQLDEGMYVSIAVKKEGHHHHHH”, the “soluble on expression in E. coli” value was “soluble”.
Turning to “MPPKKAPAKKLHELAAEVRVGHKINDISKKTFIVGKQFATGGFGRIHTCTEEGKSQQMVMKIEPSTNGPLLTEVVVFNRILKKELIESYKKKKKISWIGLPYLIANGYFTYESEKMRYMIIPKYATSLEAVRETNGGTLAMKDSLTVASCILDALEYLHESDYAHADVKAANILLEKQGVYSTAVLVDFGLAHRTTNNVDKPDKKRAHNGTCIFTSTDAHRGNNPSFRGDIEILAYNLMMWATGTLPWMALESSPEKVFDAKQKFIAGLPGTLQNVLKNESSAVVGCIASMFDISMKTNYTDKVDMGKLKKLVTDAIQKTSSDGKKTPTRQKKLAEEDKNAVTPKRSTRRLAVKEESDNKDNDEVEVKPEKKATPRKRTTRKAVEVNNDSDDNEEQYENPKSKSSRTQTKSKRAKEEDVDDEEEIIIPKSSRSRSKVQLSGEGSDVTTPSSAASTSRSRSIRLGLTSSTASSNKVAKKIEQKYKRLSMNKSSLVPVTISVASDKSPTTSTPSSSSGLRSKRKSSEDVGEGITLKTQVLITPAIKKAKTKSGISSATKASPTELRRVPGVRNFPKGRRSMIIKETSAKYKERLASRQTKPTFDDSSCSSEV”, the “soluble on expression in E. coli” value is reported as “not soluble”.
As for “MRWNICVVGAGKIGQMIAALLKTSSNYSVTVADHDLAALAVLNRMGVATKQVDAKDEAGLAKALGGFDAVISAAPFFLTPIIAKAAKAAGAHYFDLTEDVAATNAVRALAEDSQT”, the “soluble on expression in E. coli” value was “soluble”.
For “MSMATVDPWMQNLPQITNQDFFHSSGIECWNRQFPDHRVVEENGPIKTKDALMILYFITVRNIRKNRNTITRIRDALKSPVSIFRRSPKLSLQEDVLSWQKSPESLAASEYGSKLFVQFLKQQTSADDVDFWLACAKHRWTEMTRDGYEYAAYMIYNTYVFWTCERKIDLLDKFCFVDDDGGTPRDVFITAQAYVGTKFPKDSHKKFLQDPIYLNFLHSVSSAANQQKK”, the “soluble on expression in E. coli” value is “not soluble”.
As to “SLKAKILFVGPCESGKTVLANFLTESSDITEYNPTQGVRILEFENPHVTSNNKGTGCEFELWDCGGDSKFESCWPALMKDAHGVVIVFNADIPSHLKEIEMWYSCFVQQQFLQDSHCMLVAHHKPGSGGERGSLALSPPLNKLKLVHSNLEEDPEEVRVEFIKYLKSIINSMSESRDREEMLIIT”, the “soluble on expression in E. coli” value is on record as “soluble”.
With “MDGDGSSFEQFIMPPSALDRLASLHIEYPMLFQLSNVSVEKTSHCGVLEFTADEGLVYLPYWMMQNMSLEEGDVMQVKNISLVKGTYIKLQPHTQDFLDISNPKAILETTLRSYSCLTTGDTIMVPYNNKQYYINVVEAKPSSAVSIIETDCEVDFAPPLDYKEPEKPQKLTPSNKRPLQVKEEEEPASKVPKFTPFTGSGKRLDGKAQTQTEPEDTKQQEKPTENGKDDEKLSVTTPRQISGKLVFGSNSKSAAKETAKVDDPKNIVQESSTKSDEAKFKVFTGKKYSLNG”, the “soluble on expression in E. coli” value was “soluble”.
In the case of “MGSDKIHHHHHHLAADQDTETQEMLLVMSDLDAQGFDQRRINLTQAELYACIEWLARFHAMFAYEAFPKEDALDDASYDGLWPIGTYWHLATRPDELEVMTDSPLKNATEAIDARLNQARFQTLVHGDAKVANFCFHKEVESLGVNGVAAVDFQYVGAGIGVKDFIYLLGSCLDEAQLVTIYDAACSHYFKSLKQQLSGRWAAEQIEALVAEWSDLLPFAWADFERFLAGWQPQHHKRNGFSQDMTQRVLKALGSVR”, the “soluble on expression in E. coli” value is reported as “not soluble”.
As to “MQTSDLLKKVRRIEIKARGLSRQIFAGQYHSAFRGRGMAFSEVREYTVGDDVRDIDWNVTARYARPYVKVFEEERELTVMLMVDMSGSLSFGTEVETKRELTAEVAATLAFSAIQNNDKIGVLFFTDRIEKYVPPAKGKKHILYIIRELLEFRPQSRATDLSVPLSYLTRLVKKRCTAFLISDFQSEKDSYEKTLLMSARKHDIVAIRIFDRREADLPNVGLMRFRDAETGQTHWVDTADSSVRKAYADAYERRQVALAVLLKRCGVDTTEIRTGQDFVQQLLILFKKRS”, the “soluble on expression in E. coli” value is recorded as “not soluble”.
Take “MGSDKIHHHHHHMETQQLLSIYPQATISPRPSVAKNMVCVAIDAGKYICIDTTNLSNRELSLLELLTHTKSNATTGDAWSEFLTGRHTTAPQTTAKKLQILQFRVHFTERHADRSQWLSAIADTFEHVLHRAFITADSGYLLLTESLTDTSADLASLLALIDNDFYTNTHLFIGSTHRSSQDLPTTFALEQQLFSQNQQDTIVTLSSSLLPFLVNQHQPELQALRNSLSLDSDNKQLIRALYHTQGNVRQAASKLFLHRNTLLYRIEKFERCNGLNLKNMDDLVYCYLLTLGQVINQVEK”: the “soluble on expression in E. coli” value was “not soluble”.
With “MAHHHHHHMPLPPLEEAPRSMTRRNYLVERNRLRVSAYAPTRRELEEEDIRMAQTREERRRNMLNSWKSQSMYNPDLTRPLPGGGPRSKRMKEAATLKNPNYYKIVKEEEAQLKAERTAMYRADVLQQLKDREEYLRKWREDEKAYVSSLVESNKEQARKLEEREREEARAEKEYMNRMRESNLRELEQKRMKEREREEYELSLIRTVQAREKEKAETEERRARDMKQMMRRENEEYHRSIKKKQKEDKAREEAELKAILEYNATLAERERQEQKQRRDQYKAEFEETIEKQKEFFRTHNYDEPPESIRERNEKAAAALALIKKEERLRLADRRREYRQELMQQIREKQEWQLTHIDGV”, the “soluble on expression in E. coli” value is “not soluble”.
With “GPGSMAALRYLLAPRRALVTPFLRSVTCVSSGGIFSSQRPHTFPVLWHAVRTHSNDSGERSKPLTLHVQLPCGTMRTLTAYEGQTLLDVAMEHGLPIEGACGGSCACSTCHVYLENDEAMELFDEATDEENDMLDMAFFPQSTSRLGCQLTLRQQKHDGLKISLPKATRNMYVDGHTITPHH”, the “soluble on expression in E. coli” value is on record as “not soluble”.
Next, “MTPNRRSTDSYNMLGASFDFDPDFSLLSNKTHKNKNPKPPVKLLPYRHGSNTTSSDSDSYIFNSGSGSSDAETPAPVAPIFISLEDVLLNGQLIDFAIDPSGVKFLEANYPLDSEDQIRKAVFEKFTESTTLFVGLCHSRNGNFIVQKLVELATPAEQRELLRQMIDGGLLAMCKDKFACRVVQLALQKFDHSNVFQLIQELSTFDLAAMCTDQISIHVIQRVVKQLPVDMWTFFVHFLSSGDSLMAVCQDKYGCRLVQQVIDRLAENPKLPCFKFRIQLLHSLMTCIVRNCYRLSSNEFANYVIQYVIKSSGIMEMYRDTIIDKCLLRNLLSMSQDKYASHVIEGAFLFAPPALLHEMMEEIFSGYVKDVESNRDALDILLFHQYGNYVVQQMISICTAALIGKEERELPPAILLLYSGWYEKMKQRVLQHASRLERFSSGKKIIDSVMRHGVPTAAAVNAQAAPSLMELTAQFDAMFPSFLAR”: “not soluble”; “AHHHHHHGSFTGKVLIPVKVLKKFENWNEGDMILLEDWKAKELWESGVVEIIDEADKVIGEIDRVLSEEKKNLPLTPIPEGLYEKAEFYIYYLEKYIQEKVDNIETIQTKVTKLANLKKKYKTLKEIRFKKILEAVRLRPNSMEILARLSPAEKRIYLEISKIRREWIGD”: “not soluble”; “MGSDKIHHHHHHMMDFDFLEGKRLTEDVALDETMVWNEDIEMLDLHLVATSALIGVVHRVSYELLSRYLPNDYTAVVVETLARHVKAVPTGTRVAVGVRVVGVVGNRVKFRGIVMSGDEKILEAEFVRAIVPREKLRRLALEKAEKTSRLFGI”: “soluble”.
Next, “MGSDKIHHHHHHMLAQVPNTISLQQELTPLLQHEWLPHINQRDYHSGSQGGWDVLALRCAEEYHAAHPILQAFSISAANEWDNLPALESSPTLLDFIQSLACPVKSVRFMRLHAGAEIKPHRDQGLSLEQGEARLHLPLQTHDQLYFYVNDQRVPMQAGELWYINADQSHWVANKGSSARINLVIDCKVNSWLRELIHGAKIKA”: “not soluble”.
